Reference: the supplement of paper PMC6757056
± gives the standard deviation of the averaged measurements.

B1: library; a variant is named by its letters at N, in order (parent)
chain: GCUGUCACCGAGAAACUGUGAAGUAUAUCUUAAACCUGGGCACUUAAAAGAUAUAUGGAGUUAGUAGUGCAACCUGCUCGGUCUGAUGAGUCCNNNNNNGGACGAAACAGC

Experiments:
cyclic di-GMP [1] = variants of: B1; assay: FACS-Seq fitted mean relative fluorescence mCherry/BFP without ligand (log10 relative fluorescence); HEK293T; ligand: cyclic di-GMP (c-di-GMP-II aptamer); higher = higher reporter protein expression; settings: ligand present: no
How it was run: (§1)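 The ribozyme switch sat in an mCherry reporter, delivered by lentivirus into HEK293T libraries along with an EF1α-BFP marker. Enriched cells were incubated 48 h with or without ligand, sorted into 6 bins by mCherry/BFP, and bin genomic DNA was PCR-amplified, barcoded and MiSeq-sequenced. Fluorescence equals the fitted normal mean of the bin counts after normalization. Those log10(mCherry/BFP) means were scaled to five spiked-in control ribozymes.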

cyclic di-GMP [2] = variants of: B1; assay: normalized RNA/DNA level without ligand (relative to sTRSVctl = 100) (log10 (% of sTRSVctl)); HEK293T; ligand: cyclic di-GMP (c-di-GMP-II aptamer); higher = less ribozyme self-cleavage, higher mRNA level; settings: reporter: mCherry (pCS4076), ligand present: no
How it was run: (§2)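 Ribozyme switch library plasmids linked to reporters were introduced into HEK293T cells at 4 µg per 6-well well, with ligand, if any, added 1 h before. Total RNA was extracted with EDTA 72 h later, reverse-transcribed, amplified, barcoded and sequenced. RNA level was computed from RNA over DNA reads relative to a spiked-in non-cleaving sequence or the top sequences, then scaled and log-transformed. The top set was 25 sequences, values were ×100 and log10, and the cutoff was ≥100 DNA reads.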

cyclic di-GMP [3] = variants of: B1; assay: FACS-Seq fitted mean relative fluorescence mCherry/BFP with ligand (log10 relative fluorescence); HEK293T; ligand: cyclic di-GMP (c-di-GMP-II aptamer); ligand concentration (+) FACS-Seq: 1 mM; higher = higher reporter protein expression; settings: ligand present: yes
How it was run: as §1

cyclic di-GMP [4] = variants of: B1; assay: normalized RNA/DNA level with ligand (relative to sTRSVctl = 100) (log10 (% of sTRSVctl)); HEK293T; ligand: cyclic di-GMP (c-di-GMP-II aptamer); ligand concentration (+) RNA-Seq: 1 mM; higher = less ribozyme self-cleavage, higher mRNA level; settings: reporter: mCherry (pCS4076), ligand present: yes
How it was run: as §2

| Variant | FACS-Seq fitted mean (log10) (cyclic di-GMP [1]) | normalized RNA/DNA level without ligand (log10) (cyclic di-GMP [2]) | FACS-Seq fitted mean (log10) (cyclic di-GMP [3]) | normalized RNA/DNA level with ligand (log10) (cyclic di-GMP [4]) |
| --- | --- | --- | --- | --- |
| AGUAGA | -0.549 ± 0.05 | 1.36 ± 0.12 | -0.22 ± 0.075 | 1.56 ± 0.086 |
| AGUAGU | 0.132 ± 0.03 | 1.64 ± 0.066 | 0.367 ± 0.029 | 1.78 ± 0.13 |
| CGUCCU | -0.313 ± 0.09 | 1.6 ± 0.033 | 0.0379 ± 0.021 | 1.78 ± 0.12 |
| AUAUAG | -0.0556 ± 0.15 | 1.61 ± 0.046 | 0.255 ± 0.02 | 1.74 ± 0.074 |
| UGGUGA | -0.506 ± 0.1 | 1.57 ± 0.12 | -0.257 ± 0.04 | 1.75 ± 0.1 |
| AUAUCC | -0.758 ± 0.046 | 1.73 ± 0.048 | -0.565 ± 0.012 | 1.9 ± 0.11 |
| GUAUCA | -0.201 ± 0.17 | 1.62 ± 0.02 | 0.0998 ± 0.097 | 1.78 ± 0.094 |
| CGGUUA | -0.67 ± 0.04 | 1.27 ± 0.12 | -0.411 ± 0.028 | 1.43 ± 0.091 |
| UUAAUG | -0.155 ± 0.022 | 1.6 ± 0.035 | 0.183 ± 0.0019 | 1.79 ± 0.071 |
| AGUGGG | -0.534 ± 0.12 | 1.69 ± 0.069 | -0.365 ± 0.059 | 1.8 ± 0.062 |
| AGUGCC | 0.324 ± 0.079 | 1.82 ± 0.11 | 0.275 ± 0.078 | 1.92 ± 0.15 |
| AGUGCA | -0.382 ± 0.034 | 1.61 ± 0.046 | -0.043 ± 0.018 | 1.79 ± 0.096 |
| AUACAA | -0.183 ± 0.011 | 1.54 ± 0.048 | 0.0162 ± 0.13 | 1.73 ± 0.099 |
| AUACAU | -0.192 ± 0.015 | 1.62 ± 0.062 | 0.241 ± 0.0042 | 1.78 ± 0.074 |
| GUAAGG | -0.295 ± 0.022 | 1.59 ± 0.078 | 0.0239 ± 0.038 | 1.74 ± 0.067 |
| GUAAGA | -0.617 ± 0.027 | 1.46 ± 0.061 | -0.308 ± 0.026 | 1.61 ± 0.13 |
| GUAGUA | -0.69 ± 0.1 | 1.663 ± 0.0053 | -0.47 ± 0.075 | 1.74 ± 0.099 |
| UGUAGU | 0.04 ± 0.16 | 1.66 ± 0.051 | 0.343 ± 0.011 | 1.86 ± 0.12 |
